Source: the nanobody polyreactivity screen of Harvey et al. (2022)

Test: yeast display, Sf9 membrane polyspecificity reagent, FACS + sequencing; frameworks hold sequencing errors
Outline: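 Galactose-induced (36–48 hours) yeast carrying a synthetic nanobody display library were exposed to 10% biotinylated, detergent-solubilized Sf9 membrane reagent at 4 °C for 1 hour. FACS followed streptavidin microbead enrichment, using low and high (top ~1%) gates for expression (anti-HA) and reagent binding (streptavidin). Colony PCR, MiSeq 2 × 250 sequencing and CDR-length filtering followed. Labels for polyreactivity reflect the gate of origin.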

Sequence	polyreactivity (PSR sort gate)
QVQLVESGGGLVQAGGSLRLSCAASGRIFQRNAMGWYRQAPGKERELVAAITSTGVRTYYADSVKGRFTISRDNAKNTVYLQMNSLKPEDTAVYYCAVRGERRYIYAYWGQGTQVTVSS	high polyreactivity
QVQLVESGGGLVQAGGSLRLSCAASGRIFQRNAMGWYRQAPGKVWELVAAITSTGVRTYYADSVKGRFTISRDNAKNTVYLQMNSLKPEDSAVYYCNAVGRRVRTWHDYDYWGQGTQVTVSS	high polyreactivity
QVQLVESGGGLVQAGGSLRLSCAASGRIFQRYAMGWYRQAPGKERELVAAISKNGGRTYYADSVKGRFTISRDNAKNTVYLQMNSLKPEDTAVYYCNKGTAGYEYAAFDYWGQGTQVTVSS	low polyreactivity
QVQLVESGGGLVQAGGSLRLSCAASGRIFQRYTMGWYRQAPGKEREFVAAITYSGGSTHYADSVKGRFTISRDNAKNTVYLQMNSLKPEDTAVYYCNADRYYGRGYGYWGQGTQVTVSS	low polyreactivity
QVQLVESGGGLVQAGGSLRLSCAASGRIFQVNAMGWYRQAPGKERELVAAITYSGGTTYYADSVKGRFTISRDNAKNTVYLQMNSLKPEDTAVYYCNAEYRWPYWGQWYFKGYDYWGQGTQVTVSS	low polyreactivity
QVQLVESGGGLVQAGGSLRLSCAASGRIFQWYTMGWYRQAPGKERELVATITDGGSTYYADSVKGRFTISRDNAKNTVYLQMNSLKPEDTAVYYCAARKIGSRRLLYPYYIFGYWGQGTQVTVSS	high polyreactivity
QVQLVESGGGLVQAGGSLRLSCAASGRIFQYYAMGWYRQAPGKEREFVAAISDSGSNTYYADSVKGRFTISCDKAKNTVYLQMNSLKPEDTAVSYCAALYATRALFYFWGQGTQVTVSS	low polyreactivity
QVQLVESGGGLVQAGGSLRLSCAASGRIFQYYAMGWYRQAPGKERELVAAISSSGGSTYYADSVKGRFTISRDNAKNTVYLQMNSLKPEDTAVYYCNADRNARQNRRDYWGQGTQVTVSS	high polyreactivity
QVQLVESGGGLVQAGGSLRLSCAASGRIFQYYAMGWYRQEPGKERELVAAISGSGGRTYYADSVKGRFTISRDNAKNTVYLQMNSLKPEDTAVYYCNAVYRYYPFDYWGQGTQVTVSS	high polyreactivity
QVQLVESGGGLVQAGGSLRLSCAASGRIFRAYAMGWYRQAPGKERELVADIRGGGSTNYADSVKGRFTISRDNAKNTVYLQMNSLKPEDTAVYYCNAAAYRGMRQGPRYYYWGQGTQVTVSS	high polyreactivity
QVQLVESGGGLVQAGGSLRLSCAASGRIFRFYAMGWYRQAPGKERELVAAISSRGGSTYYADSVKGRFTISRDNAKNTVYLQMNSLKPEDTAVYYCNAYGSTSQMDYWGQGTQVTVSS	high polyreactivity
QVQLVESGGGLVQAGGSLRLSCAASGRIFRFYAMGWYRQAPGKERELVAVISTGGRTYYADSVKGRFTISRDNAKNTVYLQMNSLKPEDTAVYYCAAEYTTIGRYDGWHYNYWGQGTQVTVSS	high polyreactivity
QVQLVESGGGLVQAGGSLRLSCAASGRIFRFYTMAWYRQAPGKERELVAAITQRGGRTYYADSVKGRFTISRDNAKNTVYLLMNSLKPEDTAVFYCAATTTVAEYDYWGQGTQVTVSS	high polyreactivity
QVQLVESGGGLVQAGGSLRLSCAASGRIFRGNAMGWYRQAPGKERELVAAISNSGGRTYYADSVKGRFTISRDNAKNTVYVQMTSLKPEDTAVYYCNAVTYSRRYAYYYWGQGTQVTVSS	high polyreactivity
QVQLVESGGGLVQAGGSLRLSCAASGRIFRGNTMGWYRQAPGKERELVAAITRGGSTSYADSVKGRFTISRDNAKNTVYLQMNSLKPEDTAVYYCATRTHGEGTRRDSWGQGTQVTVSS	low polyreactivity
QVQLVESGGGLVQAGGSLRLSCAASGRIFRGSAMGWYRQAPGKERELVATINASGGTTYYADSVKGRFTISRDNAKNTVYLQMNSLKPEDTAVYYCNARFRRFFSGYGYWGQGTQVTVSS	high polyreactivity
QVQLVESGGGLVQAGGSLRLSCAASGRIFRGYAMGSYRQETGKETELVAAISRSGGSTYYADSVKGRFTISRDNAKNTVYLQMNILKPEDTAVYYCNTKYVRYYRRYDSWGQGTQVTVSS	high polyreactivity
QVQLVESGGGLVQAGGSLRLSCAASGRIFRGYAMGWYRQAPGKERELVAAINSGGDTYYADSVKGRFTISRDNAKNTVYLQMNSLKPEDTAVYYCAAAWWDYGNGKYDYWGQGTQVTVSS	low polyreactivity
QVQLVESGGGLVQAGGSLRLSCAASGRIFRGYAMGWYRQAPGKERELVAAISSGVSTNYADSVKGRFTISRDNAKNTVYLQKNSLKPVDTAVYYCAAYFYSPYGTAGKYRRRYNYWGQGTQVTVSS	high polyreactivity
QVQLVESGGGLVQAGGSLRLSCAASGRIFRGYAMGWYRQAPGKERELVATISAIGGSTYADSVKGRFTISRDNAKNTVYLQRNSLKPEDTAVYYCNVRKVYRYQYRFEYWGQGTQVTVSS	high polyreactivity
QVQLVESGGGLVQAGGSLRLSCAASGRIFRGYAMGWYRQAPWKERELVAAISRSGGSTYYADSVKGRFTISRDNAKNTVYLQMNSLKPVDTAVYYCAAYTYSAGGYWGQGSQVTVSS	high polyreactivity
QVQLVESGGGLVQAGGSLRLSCAASGRIFRGYAMGWYRQPPGTERELVAAITKRGGSTYYADSVKGRFTISRDNEKNTVSLQMNSLKPEDTAVYYCAAYLPGWELREYGYWGQGTQVTVSS	high polyreactivity

Sequence	polyreactivity (PSR sort gate)
QVQLVESGGGLVQAGGSLRLSCAASGRIFRGYARGWYRQAPGKEREFVAAITKNGGSTYYADSVKGRFTISRDNAKNTVYLQMNSLKPEDTAVYYCAVRAWDPYTGKSDYWGQGTQVTVSS	low polyreactivity
QVQLVESGGGLVQAGGSLRLSCAASGRIFRGYTMGWYRQAPGKERELVAAIRSGSRTNYADSVKGRFTISRDNAKNTVYLQMNSLKPEDTAVYYCAADSGYGRPYYYWGQGTQVTVSS	high polyreactivity
QVQLVESGGGLVQAGGSLRLSCAASGRIFRHYAMGWYRQAPGKVRELVAAIRWSGGSTYYADSVKGRFTISRDNAKNTVYLQMNSLKPADTAVYYCATRDAVGHRPSGPYQLYDYWGQGTQVTVSS	low polyreactivity
QVQLVESGGGLVQAGGSLRLSCAASGRIFRINAMGWYRQAPGKERELVASITSRAGSTYYADSVKGRFTISRDNAKNTVYLQMNSLKPEDTAVYYCAARSVYTYYRLDYWGQGTQVTVSS	high polyreactivity
QVQLVESGGGLVQAGGSLRLSCAASGRIFRIYGMGWYRQAPGKERELVADISIGGRTTYADSVKGRFTISRDNAKNTVYLQMNSLKPEDTAVYYCKTPYWYRIGQRLAWYDYWGQGTQVTVSS	low polyreactivity
QVQLVESGGGLVQAGGSLRLSCAASGRIFRKYAMGWYRQAPGKERELVAVINDRGGSTYYADSVKGRFTISRDNAKNTVYLQMNSLKPEDTAVYYCNATGPKKDTARYDYWGQGTQVTVSS	low polyreactivity
QVQLVESGGGLVQAGGSLRLSCAASGRIFRKYGMGWYRPAPGKERELVAAITGGGSTYYADSVKGRFTISRDNAKNTVYVQMNSLKPEDTAVYYCARGGYRWYPYVYVPSPFDYWGQGTQVTVSS	high polyreactivity
QVQLVESGGGLVQAGGSLRLSCAASGRIFRLYAMGWYRQAPGKERELVAAISKSGGSTYYADSVKGRFTISRDNAKNTVYLQMNSLKPEDTAVYYCAADYRTHGGYEGTFDYWGQGTQVTVSS	low polyreactivity
QVQLVESGGGLVQAGGSLRLSCAASGRIFRLYAMGWYRQAPGKERELVATITSGGTYYADSVKGRFTISRDNAKNTVYLQMNSLKPEDTAVYYFAAVVYPGYVGSQEYDYWGQGTQVTVSS	low polyreactivity
QVQLVESGGGLVQAGGSLRLSCAASGRIFRNNAMGWYRQATGKERELVATISSRGGSTYYADSVKGRFTISSDNAKNNVYLQMNSLKPEDTAVYYCNKRWLHWAGYDYWGQGTQVTVSS	high polyreactivity
QVQLVESGGGLVQAGGSLRLSCAASGRIFRPYAMGWYRQAPGKERELVASITRGGSTDYADSVKGRFTISRDNAKNTVYLQMNSLKPEDTAVYYCNKVWRFGYYGSYYWGQGTQVTVSS	high polyreactivity
QVQLVESGGGLVQAGGSLRLSCAASGRIFRPYVMGWYRQAPGKERELVAAISYRGSSTYYADSVKGRFTISRDNAKNTVYLQMNSLKPEDTAVYYCAAYPRVYWTKEYDYWGQGTQVTVSS	high polyreactivity
QVQLVESGGGLVQAGGSLRLSCAASGRIFRQYAMGLYRQAPGKERELVAAISRRGTSTYYADSVKGRFTISRDNAKNTVYLQMNSLKPEDTAVYYCAAGGVYSIYRTSRVGYDYWGQGTQVTVSS	high polyreactivity
QVQLVESGGGLVQAGGSLRLSCAASGRIFRRNAMGWYRQAPGKERELVASITRGGRTSYADSVKGRFTISRDNAKNTVYLQMNSLKPEDTAVYYCNARSYQSARFRGGYWGQGTQVTVSS	high polyreactivity
QVQLVESGGGLVQAGGSLRLSCAASGRIFRRSALGWSRQAPGKEREFVAAISSGGSTYYADSVKGRFTISRDNAKKYRLFTDEQPETGRYRGLLLRCVRYDVNLYDYWGHGTQVTVSS	low polyreactivity
QVQLVESGGGLVQAGGSLRLSCAASGRIFRRYAMGWYRQAHGKERELVAAITSGGRTYYADSVKGRFTISRDNAKNTVYLQMNSLKPEDTAVYYCAAKWTVGELDYWGQGTQVTVSS	high polyreactivity
QVQLVESGGGLVQAGGSLRLSCAASGRIFRRYAMGWYRQAPGKEREFVAAITKSGGSTYYADSVKGRFTISRDNAKNTVYLQMNSLKPEDTAVYDCNAYVIRALGYGGYDYWGQGTQVTVSS	high polyreactivity
QVQLVESGGGLVQAGGSLRLSCAASGRIFRRYAMGWYRQAPGKEREFVAAITWSGSSTYYADSVKGRFTISRDNAKNTVYLQMNSLKPEDTAVYYCAARHYAVRRSRYPGKLGYYWGQGTQVTVSS	high polyreactivity
QVQLVESGGGLVQAGGSLRLSCAASGRIFRRYASGWYRQAPGKEMELDADITYGVDSTYYADSVKGRFTISRDNAKNTVYLQMNSLKPEDTAVYYCIADRTEDMLYRFVGVTYGYWGQGTQVTVSS	high polyreactivity
QVQLVESGGGLVQAGGSLRLSCAASGRIFRRYTMGWYRQAPGKERELVAAISSGGSTYYADSVKGRFTISRDNAKNTVYLQMNSLKPEDTAVYYCNADSRSQPYYPEFDYWGQGTQVTVSS	low polyreactivity
QVQLVESGGGLVQAGGSLRLSCAASGRIFRRYTMGWYRQAPGKERELVAAISSGGTTYYADSVKGRFTISRDNAKNTVYLQMNSLKPEDTAVYYCAAPWRSSIPHYEYWGQGTQVTVSS	high polyreactivity
